Assay results: the Immune Epitope Database (IEDB)

Experiments:
HLA-A*30:01 = experiment: IEDB peptide-MHC binding, purified MHC/competitive/radioactivity; filed as Kd, often an IC50 or EC50 that approximates it; ≥ and ≤ were set here for values at or beyond the usual limits of such assays
HLA-B*44:02 = experiment: as above; settings: source organism: Dengue virus 2 Jamaica/1409/1983
HLA-A*02:03 = experiment: as above; settings: source organism: Vaccinia virus WR
HLA-A*02:02 = experiment: as above; settings: source organism: Vaccinia virus WR
HLA-A*02:06 = experiment: as above; settings: source organism: Vaccinia virus WR
HLA-A*11:01 = experiment: as above; settings: source organism: Vaccinia virus WR
HLA-A*29:02 = experiment: as above
HLA-A*03:01 = experiment: as above; settings: source organism: Vaccinia virus WR
HLA-A*68:01 = experiment: as above
HLA-A*31:01 = experiment: as above; settings: source organism: Vaccinia virus WR
HLA-A*33:01 = experiment: as above
HLA-A*02:01 = experiment: IEDB peptide-MHC binding, purified MHC/direct/fluorescence; filed as Kd, often an IC50 or EC50 that approximates it; ≥ and ≤ were set here for values at or beyond the usual limits of such assays
HLA-A*69:01 = experiment: as above
HLA-A*23:01 = experiment: IEDB peptide-MHC binding, purified MHC/competitive/radioactivity; filed as Kd, often an IC50 or EC50 that approximates it; ≥ and ≤ were set here for values at or beyond the usual limits of such assays
HLA-A*30:02 = experiment: as above
HLA-A*01:01 = experiment: as above
HLA-A*24:02 = experiment: as above
HLA-A*26:01 = experiment: as above
HLA-B*51:01 = experiment: IEDB peptide-MHC binding, purified MHC/competitive/fluorescence; filed as Kd, often an IC50 or EC50 that approximates it; ≥ and ≤ were set here for values at or beyond the usual limits of such assays
HLA-B*15:01 = experiment: IEDB peptide-MHC binding, purified MHC/direct/fluorescence; filed as Kd, often an IC50 or EC50 that approximates it; ≥ and ≤ were set here for values at or beyond the usual limits of such assays; settings: source organism: Salmonella enterica subsp. enterica serovar Typhimurium
[1] = source organism: Dengue virus 2 Jamaica/1409/1983
[2] = source organism: Vaccinia virus WR
[3] = source organism: Hyphomonas neptunium
[4] = source organism: SARS coronavirus Tor2
[5] = source organism: Dengue virus 1 Brazil/97-11/1997
[6] = source organism: Dengue virus 4 Philippines/H241/1956
[7] = source organism: Lassa virus GA391
[8] = source organism: Dengue virus 3 Martinique/1243/1999
[9] = source organism: Salmonella enterica subsp. enterica serovar Typhimurium
[10] = source organism: Lymphocytic choriomeningitis virus (strain Armstrong)

Row | Sequence | Kd (HLA-A*23:01; [4]) | Kd (HLA-A*30:02; [4]) | Kd (HLA-A*01:01; [4]) | Kd (HLA-A*24:02; [4]) | Kd (HLA-A*26:01; [4]) | Kd (HLA-A*29:02; [4]) | also measured
1 | AGVLWDVPSP |  |  |  |  |  |  | Kd (HLA-A*30:01; [1]): 11.9 µM
2 | AICSAVPSHW |  |  |  |  |  |  | Kd (HLA-B*44:02): 0.181 µM
3 | AIRAGYSIV |  |  |  |  |  |  | Kd (HLA-A*02:03): 0.000211 µM; Kd (HLA-A*02:02): 1.2 µM; Kd (HLA-A*02:06): 8.06 µM; Kd (HLA-A*30:01; [2]): 0.00142 µM
4 | ALEVLMSPCR |  |  |  |  |  |  | Kd (HLA-A*11:01): 6.33 µM; Kd (HLA-A*29:02; [2]): ≥ 38.5 µM; Kd (HLA-A*03:01): 0.328 µM; Kd (HLA-A*68:01; [2]): 0.465 µM; Kd (HLA-A*31:01): 0.0424 µM; Kd (HLA-A*33:01; [2]): 0.254 µM
5 | ALTPPFHPY |  |  |  |  |  |  | Kd (HLA-A*02:01; [3]): 9 µM; Kd (HLA-A*69:01; [3]): ≥ 20 µM
6 | AMGKPVPYCY | ≥ 70 µM | 0.0011 µM | 1.99 µM | ≥ 70.3 µM | ≥ 49.4 µM | 0.0895 µM | 
7 | AMQKESDDY | ≥ 77.8 µM | 0.126 µM | 2.74 µM | ≥ 77.6 µM | ≥ 65.3 µM | 15.5 µM | 
8 | CPLVLDFII |  |  |  |  |  |  | Kd (HLA-B*51:01; source organism: Brucella abortus S19): 0.323 µM
9 | DTSNPKTPKY | ≥ 70 µM | 0.0489 µM | 0.194 µM | ≥ 70.3 µM | 1.26 µM | 0.367 µM | 
10 | DYMTSMKRF |  |  |  |  |  |  | Kd (HLA-A*23:01; [5]): 0.791 µM; Kd (HLA-A*24:02; [5]): 0.214 µM
11 | DYQGKTVWF |  |  |  |  |  |  | Kd (HLA-A*23:01; [6]): 0.805 µM; Kd (HLA-A*24:02; [6]): 0.763 µM
12 | EGNETPGGY |  |  |  |  |  |  | Kd (HLA-A*23:01; [7]): 0.174 µM; Kd (HLA-A*30:02; [7]): ≥ 76.9 µM; Kd (HLA-A*01:01; [7]): ≥ 20.9 µM; Kd (HLA-A*24:02; [7]): 1.21 µM; Kd (HLA-A*26:01; [7]): ≥ 77.9 µM; Kd (HLA-A*29:02; [7]): 18.6 µM
13 | ELSPRWYFY | 10.6 µM | 0.79 µM | ≥ 35 µM | 13.2 µM | 0.0157 µM | 0.0703 µM | 
14 | ETENILTVLL |  |  |  |  |  |  | Kd (HLA-A*01:01; [8]): 3.84 µM; Kd (HLA-A*26:01; [8]): 16.2 µM
15 | EVKSCHWPK |  |  |  |  |  |  | Kd (HLA-A*68:01; [1]): 0.0706 µM; Kd (HLA-A*30:01; [1]): 0.166 µM; Kd (HLA-A*33:01; [1]): 0.00723 µM
16 | FPPEIINVI |  |  |  |  |  |  | Kd (HLA-B*51:01; source organism: Variola virus): 0.213 µM
17 | FTSCELYHY | ≥ 38.1 µM | 0.365 µM | 0.00173 µM | ≥ 35.8 µM | 0.811 µM | 0.00357 µM | 
18 | FYAYLRKHF | ≥ 23.9 µM | ≥ 125 µM | ≥ 78.1 µM | ≥ 31.8 µM | ≥ 77.9 µM | ≥ 46 µM | 
19 | GLIEEMASA |  |  |  |  |  |  | Kd (HLA-A*02:01; [9]): 0.02 µM; Kd (HLA-A*69:01; [9]): ≥ 20.9 µM; Kd (HLA-B*15:01): 4.5 µM
20 | GNRGSTSFK |  |  |  |  |  |  | Kd (HLA-A*30:01; [2]): 0.00204 µM
21 | HAFSSLLSG |  |  |  |  |  |  | Kd (HLA-A*30:01; [2]): 1.11 µM
22 | HTAITQVRNL |  |  |  |  |  |  | Kd (HLA-A*26:01; [6]): 2.27 µM
23 | ICISLSNSF |  |  |  |  |  |  | Kd (HLA-A*23:01; [10]): ≥ 77.7 µM; Kd (HLA-A*30:02; [10]): ≥ 76.9 µM; Kd (HLA-A*01:01; [10]): ≥ 21.4 µM; Kd (HLA-A*24:02; [10]): ≥ 77.5 µM; Kd (HLA-A*26:01; [10]): ≥ 77.9 µM; Kd (HLA-A*29:02; [10]): ≥ 78.9 µM
24 | IDATSTGNY | ≥ 77.8 µM | 8.59 µM | 3.72 µM | ≥ 73.8 µM | 1.05 µM | 0.447 µM | 
25 | ITLVYKVYY | ≥ 57.7 µM | 0.00519 µM | 0.0449 µM | ≥ 77.6 µM | 1.64 µM | 0.00164 µM | 
26 | KDLISYGGGW |  |  |  |  |  |  | Kd (HLA-B*44:02): 0.31 µM
